Results: patent US11702666B2, “Cell-based assay for determining activity in the retinoblastoma pathway” (Medical Diagnostic Laboratories, LLC, priority 2017, dated 2023)
Residue numbers refer to the chain shown, from its start. Numbers in names are those of the source.

B1: CDK4 V137I: CDK4 mutant from COSMIC database (protein, UniProt P11802 2-303, looked up, variant V137I)
Cyclin-dependent kinase 4: ATSRYEPVAEIGVGAYGTVYKARDPHSGHFVALKSVRVPNGGGGGGGLPISTVREVALLRRLEAFEHPNVVRLMDVCATSRTDREIKVTLVFEHVDQDLRTYLDKAPPPGLPAETIKDLMRQFLRGLDFLHANCIIHRDLKPENILVTSGGTVKLADFGLARIYSYQMALTPVVVTLWYRAPEVLLQSTYATPVDMWSVGCIFAEMFRRKPLFCGNSEADQLGKIFDLIGLPPEDDWPRDVSLPRGAFPPRGPRPVQSVVPEMEESGAQLLLEMLTFNPHKRISAFRALQHSYLHKDEGNPE
B2: CDK4 K22M: CDK4 mutant from COSMIC database (protein, UniProt P11802 2-303, looked up, variant K22M)
Cyclin-dependent kinase 4: B1 Cyclin-dependent kinase 4 with K21M, I136V
B3: CDK4 R24S: CDK4 mutant from COSMIC database (protein, UniProt P11802 2-303, looked up, variant R24S)
Cyclin-dependent kinase 4: B1 Cyclin-dependent kinase 4 with R23S, I136V
B4: CDK4 L161L: CDK4 silent variant (C-T) from COSMIC database (protein, UniProt P11802 2-303, looked up)
Cyclin-dependent kinase 4: B1 Cyclin-dependent kinase 4 with I136V
modifications: silent L161L nucleotide variant
notes: CDK4 silent variant (C-T) from COSMIC database
B5: CDK4 D158N: CDK4 mutant, literature kinase dead (protein, UniProt P11802 2-303, looked up, variant D158N)
Cyclin-dependent kinase 4: B1 Cyclin-dependent kinase 4 with I136V, D157N
B6: CDK4 K35R: CDK4 mutant from COSMIC database (protein, UniProt P11802 2-303, looked up, variant K35R)
Cyclin-dependent kinase 4: B1 Cyclin-dependent kinase 4 with K34R, I136V
B7: CDK4 K35M: CDK4 mutant, literature kinase dead (protein, UniProt P11802 2-303, looked up, variant K35M)
Cyclin-dependent kinase 4: B1 Cyclin-dependent kinase 4 with K34M, I136V
B8: CDK4 R210Q: CDK4 mutant from COSMIC database (protein, UniProt P11802 2-303, looked up, variant R210Q)
Cyclin-dependent kinase 4: B1 Cyclin-dependent kinase 4 with I136V, R209Q
B9: CDK4 K155Q: CDK4 mutant from COSMIC database (protein, UniProt P11802 2-303, looked up, variant K155Q)
Cyclin-dependent kinase 4: B1 Cyclin-dependent kinase 4 with I136V, K154Q
B10: CDK4 S285C: CDK4 mutant from COSMIC database (protein, UniProt P11802 2-303, looked up, variant S285C)
Cyclin-dependent kinase 4: B1 Cyclin-dependent kinase 4 with I136V, S284C
B11: CDK4 D158Y: CDK4 mutant from COSMIC database (protein, UniProt P11802 2-303, looked up, variant D158Y)
Cyclin-dependent kinase 4: B1 Cyclin-dependent kinase 4 with I136V, D157Y
B12: CDK4 I51F: predicted drug resistant CDK4 mutant (protein, UniProt P11802 2-303, looked up, variant I51F)
Cyclin-dependent kinase 4: B1 Cyclin-dependent kinase 4 with I50F, I136V

System: Rb/E2F1-Dp-1 complex
Test: CDK4 mutant activity / drug resistance in NanoBiT assay, stable cell line #11
Assay type: cell-based, human
Details: CDK4 mutants, compared to the WT (being 100%)
Method: A linear expression cassette of mutated CDK4 or CDK6 was generated by PCR mediated overlapping extension method. A pair of forward and reverse primers containing the targeted mutations was designed. The mutated codon was located in the middle of a primer flanked by 18-21 nucleotides on each side. Two PCRs (named as PCR #1 and PCR #2 in FIG. 1) were performed using UF-CMV forward and mutated reverse primers, or mutated forward and BGH-UR primers. The PCR products were cleaned up by ExoSAP-IT® (Affymetrix) to remove unconsumed dNTPs and primers. The treated PCR products were mixed together followed by dilution with water. A second round of PCR was performed using the diluted PCR mixture, and the UF and UR primers (FIG. 1). The amplified products were gel-purified. The DNA concentration was quantitated by the optical density at 260 nm using Nanodrop. The targeted mutations were incorporated in the CDK4 or CDK6 genes during the PCR mediated overlapping extension method. The introduced mutations were confirmed by the DNA sequencing.
To examine the ability of the assay to detect variants in CDK4 or CDK6 that affect function, kinase dead mutants and COSMIC (Catalogue Of Somatic Mutations in cancer) unknown mutants were created. For comparison, hyperactive CDK4 or CDK6 mutants known to be hyperactive due to less binding to natural inhibitor p16 were also created. The mutations in CDK4 or CDK6 were created by site-directed mutagenesis. WT or mutated CDK4 or CDK6 along with the CyclinD1 and SB-Rb were co-transfected, under similar conditions as previously indicated (see FIG. 9).
To examine the specificity of the assay, particular CDK4 kinase dead mutants were created. Modifications to D158 were made by changing aspartate to nonpolar alanine (D158A) or positively charged arginine (D158R). […] The mutations in CDK4 were created by site-directed mutagenesis. WT or mutated CDK4 along with the CyclinD1 and SB-Rb was co-transfected into the #11 cell line, under the same conditions as previously indicated. […] Kinase dead mutants have the high signal due to inability to phosphorylate Rb.
Computer modeling was used to reveal the drug-binding pocket and predict drug-resistant mutants. The mutations in CDK4 and CDK6 were created by site-directed mutagenesis. WT or mutated CDK4 or CDK6 along with the CyclinD1 and SB-Rb was co-transfected into #11 cell line, under the same conditions as previously indicated. […] Dose response curves are presented on FIG. 13A and FIG. 13B. Activity of other mutants was very similar to the WT or KD.
CDK4 and CDK6 mutants with known function and unknown function taken from the COSMIC database were analyzed in the present assay and are summarized in Table 7A and Table 7B. The mutants were classified according to their activity. Table 7A and Table 7B also show the number of counts per mutant in the COSMIC database, type of cancer, and luciferase activity compared to the WT (being 100%).

Compared with B1, B2 is higher in “Luc. activity (/wt)” value: 120% for the first, 141% for the second.

Going from B3 to B4, the “Luc. activity (/wt)” value falls from 117% to 59%.

First: B5
Second: B6
The “Luc. activity (/wt)” value of the first is lower: 300% for the first, 310% for the second.

Compared with B7, B8 is lower in “Luc. activity (/wt)” value: 350% for the first, 74.5% for the second.

Compared with B9, B10 is lower in “Luc. activity (/wt)” value: 130% for the first, 125% for the second.

B11 was tested, and the “Luc. activity (/wt)” value was 230%.

Same assay, conditions: predicted drug resistant CDK4 mutants, relative to WT

Molecule B12 has a Luc. activity (/wt) of 160%.
